Legend:
[1] = biological target: Aβ1-42 peptide, monomer-enriched preparation; assay: ELISA assay 1, Ab 1:1 of 0.5 µg/ml
[2] = biological target: Aβ1-42 peptide, oligomer-enriched preparation; assay: ELISA assay 1, Ab 1:1 of 0.5 µg/ml
[3] = biological target: Aβ1-42 peptide, monomer-enriched preparation; assay: ELISA assay 1, Ab 1:2 of 0.5 µg/ml
[4] = biological target: Aβ1-42 peptide, oligomer-enriched preparation; assay: ELISA assay 1, Ab 1:2 of 0.5 µg/ml
[5] = biological target: Aβ1-42 peptide, oligomer-enriched preparation; assay: ELISA assay 1, Ab 1:4 of 0.5 µg/ml
[6] = biological target: Aβ1-42 peptide, monomer-enriched preparation; assay: ELISA assay 1, Ab 1:8 of 0.5 µg/ml
[7] = biological target: Aβ1-42 peptide, oligomer-enriched preparation; assay: ELISA assay 1, Ab 1:8 of 0.5 µg/ml
[8] = biological target: Aβ1-42 peptide, monomer-enriched preparation; assay: ELISA assay 2, Ab 1:1 of 0.5 µg/ml
[9] = biological target: Aβ1-42 peptide, oligomer-enriched preparation; assay: ELISA assay 2, Ab 1:1 of 0.5 µg/ml
[10] = biological target: Aβ1-42 peptide, monomer-enriched preparation; assay: ELISA assay 2, Ab 1:2 of 0.5 µg/ml
[11] = biological target: Aβ1-42 peptide, oligomer-enriched preparation; assay: ELISA assay 2, Ab 1:2 of 0.5 µg/ml
[12] = biological target: Aβ1-42 peptide, monomer-enriched preparation; assay: ELISA assay 2, Ab 1:4 of 0.5 µg/ml
[13] = biological target: Aβ1-42 peptide, oligomer-enriched preparation; assay: ELISA assay 2, Ab 1:4 of 0.5 µg/ml
[14] = biological target: Aβ1-42 peptide, oligomer-enriched preparation; assay: ELISA assay 2, Ab 1:8 of 0.5 µg/ml
[15] = biological target: Aβ1-42 peptide, monomer-enriched preparation; assay: ELISA assay 3, Ab 1:1 of 0.5 µg/ml
[16] = biological target: Aβ1-42 peptide, oligomer-enriched preparation; assay: ELISA assay 3, Ab 1:1 of 0.5 µg/ml
[17] = biological target: Aβ1-42 peptide, monomer-enriched preparation; assay: ELISA assay 3, Ab 1:2 of 0.5 µg/ml
[18] = biological target: Aβ1-42 peptide, oligomer-enriched preparation; assay: ELISA assay 3, Ab 1:2 of 0.5 µg/ml
[19] = biological target: Aβ1-42 peptide, monomer-enriched preparation; assay: ELISA assay 3, Ab 1:4 of 0.5 µg/ml
[20] = biological target: Aβ1-42 peptide, oligomer-enriched preparation; assay: ELISA assay 3, Ab 1:4 of 0.5 µg/ml
[21] = biological target: Aβ1-42 peptide, oligomer-enriched preparation; assay: ELISA assay 3, Ab 1:8 of 0.5 µg/ml
[22] = biological target: Aβ1-42 peptide, monomer-enriched preparation; assay: ELISA assay 1, Ab 1:16 of 0.5 µg/ml
[23] = biological target: Aβ1-42 peptide, oligomer-enriched preparation; assay: ELISA assay 1, Ab 1:16 of 0.5 µg/ml
[24] = biological target: Aβ1-42 peptide, monomer-enriched preparation; assay: ELISA assay 1, Ab 1:32 of 0.5 µg/ml
[25] = biological target: Aβ1-42 peptide, oligomer-enriched preparation; assay: ELISA assay 1, Ab 1:32 of 0.5 µg/ml
[26] = biological target: Aβ1-42 peptide, monomer-enriched preparation; assay: ELISA assay 1, Ab 1:64 of 0.5 µg/ml
[27] = biological target: Aβ1-42 peptide, oligomer-enriched preparation; assay: ELISA assay 1, Ab 1:64 of 0.5 µg/ml
[28] = biological target: Aβ1-42 peptide, monomer-enriched preparation; assay: ELISA assay 2, Ab 1:16 of 0.5 µg/ml
[29] = biological target: Aβ1-42 peptide, oligomer-enriched preparation; assay: ELISA assay 2, Ab 1:16 of 0.5 µg/ml
[30] = biological target: Aβ1-42 peptide, monomer-enriched preparation; assay: ELISA assay 2, Ab 1:32 of 0.5 µg/ml
[31] = biological target: Aβ1-42 peptide, oligomer-enriched preparation; assay: ELISA assay 2, Ab 1:32 of 0.5 µg/ml
[32] = biological target: Aβ1-42 peptide, monomer-enriched preparation; assay: ELISA assay 2, Ab 1:64 of 0.5 µg/ml
[33] = biological target: Aβ1-42 peptide, oligomer-enriched preparation; assay: ELISA assay 2, Ab 1:64 of 0.5 µg/ml
[34] = biological target: Aβ1-42 peptide, monomer-enriched preparation; assay: ELISA assay 3, Ab 1:16 of 0.5 µg/ml
[35] = biological target: Aβ1-42 peptide, oligomer-enriched preparation; assay: ELISA assay 3, Ab 1:16 of 0.5 µg/ml
[36] = biological target: Aβ1-42 peptide, monomer-enriched preparation; assay: ELISA assay 3, Ab 1:32 of 0.5 µg/ml
[37] = biological target: Aβ1-42 peptide, oligomer-enriched preparation; assay: ELISA assay 3, Ab 1:32 of 0.5 µg/ml
[38] = biological target: Aβ1-42 peptide, monomer-enriched preparation; assay: ELISA assay 3, Ab 1:64 of 0.5 µg/ml
[39] = biological target: Aβ1-42 peptide, oligomer-enriched preparation; assay: ELISA assay 3, Ab 1:64 of 0.5 µg/ml
[40] = biological target: Aβ1-42 peptide, high molecular weight (HMW) proto-fibrillar (PF) oligomer enriched preparation (human); assay: ELISA on coated fraction, Ab 1 µg/ml
[41] = biological target: Aβ1-42 peptide, low molecular weight (LMW) monomer preparation (human); assay: ELISA on coated fraction, Ab 1 µg/ml
[42] = biological target: Aβ1-42 peptide, monomer-enriched preparation; assay: ELISA assay 1, Ab 1:128 of 0.5 µg/ml

Sequence of Aβ1-42 peptide, oligomer-enriched preparation (peptide, as listed by the source, form in doubt): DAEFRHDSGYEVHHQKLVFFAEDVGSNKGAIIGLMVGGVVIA
Sequence of Aβ1-42 peptide, monomer-enriched preparation (peptide, as listed by the source, form in doubt): as above
Sequence of Aβ1-42 peptide, low molecular weight (LMW) monomer preparation (human) (peptide, as listed by the source, form in doubt): as above
Sequence of Aβ1-42 peptide, high molecular weight (HMW) proto-fibrillar (PF) oligomer enriched preparation (human) (peptide, as listed by the source, form in doubt): as above

**Q.** 6E10 control antibody was tested. Which O.D. [1] did it give?
**A.** Its O.D. is 3.67 O.D.

**Q.** And the O.D. [2]?
**A.** The O.D. was 3.36 O.D.

**Q.** What about the O.D. [3] of the same substance?
**A.** Its O.D. is 3.3 O.D.

**Q.** And the O.D. [4]?
**A.** Its O.D. is 3.39 O.D.

**Q.** And the O.D. [5]?
**A.** The O.D. was 3.1 O.D.

**Q.** And the O.D. [6]?
**A.** Its O.D. is 2.67 O.D.

**Q.** What about the O.D. [7] of the same substance?
**A.** The O.D. was 2.73 O.D.

**Q.** And the O.D. [8]?
**A.** Its O.D. is 3.77 O.D.

**Q.** What about the O.D. [9] of the same substance?
**A.** Its O.D. is 3.67 O.D.

**Q.** And the O.D. [10]?
**A.** Its O.D. is 3.48 O.D.

**Q.** And the O.D. [11]?
**A.** Its O.D. is 3.55 O.D.

**Q.** What about the O.D. [12] of the same substance?
**A.** The O.D. was 3.29 O.D.

**Q.** And the O.D. [13]?
**A.** The O.D. was 3.37 O.D.

**Q.** And the O.D. [14]?
**A.** The O.D. was 2.99 O.D.

**Q.** And the O.D. [15]?
**A.** The O.D. was 4.04 O.D.

**Q.** And the O.D. [16]?
**A.** The O.D. was 3.89 O.D.

**Q.** And the O.D. [17]?
**A.** The O.D. was 4 O.D.

**Q.** And the O.D. [18]?
**A.** Its O.D. is 3.83 O.D.

**Q.** What about the O.D. [19] of the same substance?
**A.** The O.D. was 3.52 O.D.

**Q.** What about the O.D. [20] of the same substance?
**A.** The O.D. was 3.64 O.D.

**Q.** What about the O.D. [21] of the same substance?
**A.** The O.D. was 3.23 O.D.

**Q.** What about the O.D. [22] of the same substance?
**A.** Its O.D. is 1.78 O.D.

**Q.** And the O.D. [23]?
**A.** The O.D. was 1.78 O.D.

**Q.** What about the O.D. [24] of the same substance?
**A.** Its O.D. is 1.18 O.D.

**Q.** And the O.D. [25]?
**A.** The O.D. was 1.27 O.D.

**Q.** What about the O.D. [26] of the same substance?
**A.** Its O.D. is 0.81 O.D.

**Q.** And the O.D. [27]?
**A.** Its O.D. is 0.93 O.D.

**Q.** And the O.D. [28]?
**A.** The O.D. was 1.94 O.D.

**Q.** And the O.D. [29]?
**A.** The O.D. was 1.92 O.D.

**Q.** What about the O.D. [30] of the same substance?
**A.** Its O.D. is 1.34 O.D.

**Q.** What about the O.D. [31] of the same substance?
**A.** Its O.D. is 1.3 O.D.

**Q.** What about the O.D. [32] of the same substance?
**A.** Its O.D. is 0.94 O.D.

**Q.** What about the O.D. [33] of the same substance?
**A.** Its O.D. is 0.88 O.D.

**Q.** And the O.D. [34]?
**A.** The O.D. was 2.23 O.D.

**Q.** What about the O.D. [35] of the same substance?
**A.** Its O.D. is 2.07 O.D.

**Q.** What about the O.D. [36] of the same substance?
**A.** The O.D. was 1.54 O.D.

**Q.** What about the O.D. [37] of the same substance?
**A.** The O.D. was 1.4 O.D.

**Q.** What about the O.D. [38] of the same substance?
**A.** The O.D. was 1.08 O.D.

**Q.** And the O.D. [39]?
**A.** Its O.D. is 0.95 O.D.

**Q.** What about the O.D. [40] of the same substance?
**A.** Its O.D. is 2.55 O.D.

**Q.** What about the O.D. [41] of the same substance?
**A.** Its O.D. is 2.68 O.D.

**Q.** What about the O.D. [42] of the same substance?
**A.** The O.D. was 0.64 O.D.

Source: patent EP2170953B1
